In PMC8765631 one finds stoichiometry N data, which are given here for two substances.

Assay [1] addresses RhsA_(ΔTMD) (RhsA lacking its N-terminal prePAAR motif and TMD, residues 74-1486) (Pseudomonas protegens Pf-5). Kind of assay: cryo-EM structure; purified RhsA_(ΔTMD) at 4 mg/ml in 20 mM Tris-HCl pH 8.0, 150 mM NaCl; single particle analysis with C2 symmetry, 3.3 Å.
Assay [2] deals with VgrG1 from Pseudomonas protegens (Pseudomonas protegens Pf-5). Kind of assay: cryo-EM structure.

For orientation: stoichiometry N means a count of units in the complex or per binding partner. Consider “RhsA_(ΔTMD) (RhsA lacking its N-terminal prePAAR motif and TMD, residues 74-1486) (domain or fragment)”, for which, in assay [1], the stoichiometry N came out at 2.

“VgrG1 from Pseudomonas protegens (natural protein)” had a stoichiometry N in assay [2] of 3.
